Laboratory results as given in paper PMC4259810.

Assays:
DLC1 500-1,091 = DLC1 500-1,091 (UniProt Q96QB1); test: GST pull-down from cotransfected cells, GFP blot; details: reference: GST-(1–550)-WT; sites S120,S205,S422,S509
[1] = biological target: DLC1 Rho-GAP domain, 609-878 (UniProt Q96QB1); test: GST pull-down from cotransfected cells, GFP blot; details: sites S120,S205,S422,S509

| binding against the reference (DLC1 500-1,091) | binding against the reference ([1]; reference: GST-(1–550)-WT) | binding against the reference ([1]; reference: GST-DLC1(80–550)-WT) | Substance |
| --- | --- | --- | --- |
| stronger | stronger |  | DLC1 1-550 (from UniProt Q96QB1-1) GST-(1–550)-4A |
|  |  | stronger | DLC1 80-550 (from UniProt Q96QB1-1) GST-DLC1(80–550)-4A |
